Patent publication US20090048164A1 (WALTER AND ELIZA HALL INSTITUTE OF MEDICAL RESEARCH, published 2009)

T1: Bcl-w
T1 chain: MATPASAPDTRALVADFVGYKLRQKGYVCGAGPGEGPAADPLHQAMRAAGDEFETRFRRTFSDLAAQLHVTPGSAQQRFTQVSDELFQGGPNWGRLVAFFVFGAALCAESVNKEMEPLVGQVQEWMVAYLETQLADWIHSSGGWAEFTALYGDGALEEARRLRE

B1: Bad BH3 W3A, phage-displayed (peptide)
peptide: NLAAAQRYGRELRRMSDEFVDSFKKG
notes: M13 phage display: FLAG-26mer-GGGT-g3(249-406)
B2: Bad BH3 G26E, phage-displayed (peptide)
peptide: NLWAAQRYGRELRRMSDEFVDSFKKE
notes: as for B1
B3: Bad BH3 A4E, phage-displayed (peptide)
peptide: NLWEAQRYGRELRRMSDEFVDSFKKG
notes: as for B1
B4: Bad BH3 E18A, phage-displayed (peptide)
peptide: NLWAAQRYGRELRRMSDAFVDSFKKG
notes: as for B1
B5: Bad BH3 M15A, phage-displayed (peptide)
peptide: NLWAAQRYGRELRRASDEFVDSFKKG
notes: as for B1
B6: Bad BH3 L2A, phage-displayed (peptide)
peptide: NAWAAQRYGRELRRMSDEFVDSFKKG
notes: as for B1
B7: Bad BH3 Q6A, phage-displayed (peptide)
peptide: NLWAAARYGRELRRMSDEFVDSFKKG
notes: as for B1
B8: Bad BH3 A5E, phage-displayed (peptide)
peptide: NLWAEQRYGRELRRMSDEFVDSFKKG
notes: as for B1
B9: Bad BH3 D17A, phage-displayed (peptide)
peptide: NLWAAQRYGRELRRMSAEFVDSFKKG
notes: as for B1
B10: Bad BH3 K25A, phage-displayed (peptide)
peptide: NLWAAQRYGRELRRMSDEFVDSFKAG
notes: as for B1
B11: Bad BH3 V20A, phage-displayed (peptide)
peptide: NLWAAQRYGRELRRMSDEFADSFKKG
notes: as for B1
B12: Bad BH3 Y8A, phage-displayed (peptide)
peptide: NLWAAQRAGRELRRMSDEFVDSFKKG
notes: as for B1
B13: Bad BH3 F23A, phage-displayed (peptide)
peptide: NLWAAQRYGRELRRMSDEFVDSAKKG
notes: as for B1
B14: Bad BH3 R13A, phage-displayed (peptide)
peptide: NLWAAQRYGRELARMSDEFVDSFKKG
notes: as for B1
B15: Bad BH3 wild type, phage-displayed (peptide)
peptide: NLWAAQRYGRELRRMSDEFVDSFKKG
notes: M13 phage display: FLAG-26mer-GGGT-g3(249-406); also called wtBad
B16: Bad BH3 R14A, phage-displayed (peptide)
peptide: NLWAAQRYGRELRAMSDEFVDSFKKG
notes: as for B1
B17: Bad BH3 R7A, phage-displayed (peptide)
peptide: NLWAAQAYGRELRRMSDEFVDSFKKG
notes: as for B1
B18: Bad BH3 N1A, phage-displayed (peptide)
peptide: ALWAAQRYGRELRRMSDEFVDSFKKG
notes: as for B1
B19: Bad BH3 S22A, phage-displayed (peptide)
peptide: NLWAAQRYGRELRRMSDEFVDAFKKG
notes: as for B1
B20: Bad BH3 R10A, phage-displayed (peptide)
peptide: NLWAAQRYGAELRRMSDEFVDSFKKG
notes: as for B1
B21: Bad BH3 K24A, phage-displayed (peptide)
peptide: NLWAAQRYGRELRRMSDEFVDSFAKG
notes: as for B1
B22: Bad BH3 D21A, phage-displayed (peptide)
peptide: NLWAAQRYGRELRRMSDEFVASFKKG
notes: as for B1
B23: Bid BH3 L12A, phage-displayed (peptide)
peptide: QEDIIRNIARHAAQVGDSMDRSIPPG
notes: as for B1
B24: Bid BH3 P24A, phage-displayed (peptide)
peptide: QEDIIRNIARHLAQVGDSMDRSIAPG
notes: as for B1
B25: Bid BH3 R21A, phage-displayed (peptide)
peptide: QEDIIRNIARHLAQVGDSMDASIPPG
notes: as for B1
B26: Bid BH3 P25A, phage-displayed (peptide)
peptide: QEDIIRNIARHLAQVGDSMDRSIPAG
notes: as for B1
B27: Bid BH3 wild type, phage-displayed (peptide)
peptide: QEDIIRNIARHLAQVGDSMDRSIPPG
notes: M13 phage display: FLAG-26mer-GGGT-g3(249-406); also called wtBid
B28: Bid BH3 I8A, phage-displayed (peptide)
peptide: QEDIIRNAARHLAQVGDSMDRSIPPG
notes: as for B1
B29: Bid BH3 Q1A, phage-displayed (peptide)
peptide: AEDIIRNIARHLAQVGDSMDRSIPPG
notes: as for B1
B30: Bid BH3 A13E, phage-displayed (peptide)
peptide: QEDIIRNIARHLEQVGDSMDRSIPPG
notes: as for B1
B31: Bid BH3 S22A, phage-displayed (peptide)
peptide: QEDIIRNIARHLAQVGDSMDRAIPPG
notes: as for B1
B32: Bid BH3 G26E, phage-displayed (peptide)
peptide: QEDIIRNIARHLAQVGDSMDRSIPPE
notes: as for B1
B33: Bid BH3 V15A, phage-displayed (peptide)
peptide: QEDIIRNIARHLAQAGDSMDRSIPPG
notes: as for B1
B34: Bid BH3 E2A, phage-displayed (peptide)
peptide: QADIIRNIARHLAQVGDSMDRSIPPG
notes: as for B1
B35: Bid BH3 I4A, phage-displayed (peptide)
peptide: QEDAIRNIARHLAQVGDSMDRSIPPG
notes: as for B1
B36: Bid BH3 N7A, phage-displayed (peptide)
peptide: QEDIIRAIARHLAQVGDSMDRSIPPG
notes: as for B1
B37: Bid BH3 H11A, phage-displayed (peptide)
peptide: QEDIIRNIARALAQVGDSMDRSIPPG
notes: as for B1
B38: Bid BH3 S18A, phage-displayed (peptide)
peptide: QEDIIRNIARHLAQVGDAMDRSIPPG
notes: as for B1
B39: Bid BH3 D20A, phage-displayed (peptide)
peptide: QEDIIRNIARHLAQVGDSMARSIPPG
notes: as for B1
B40: Bid BH3 D3A, phage-displayed (peptide)
peptide: QEAIIRNIARHLAQVGDSMDRSIPPG
notes: as for B1
B41: Bid BH3 I5A, phage-displayed (peptide)
peptide: QEDIARNIARHLAQVGDSMDRSIPPG
notes: as for B1
B42: Bid BH3 R6A, phage-displayed (peptide)
peptide: QEDIIANIARHLAQVGDSMDRSIPPG
notes: as for B1
B43: Bid BH3 I23A, phage-displayed (peptide)
peptide: QEDIIRNIARHLAQVGDSMDRSAPPG
notes: as for B1
B44: Bid BH3 R10A, phage-displayed (peptide)
peptide: QEDIIRNIAAHLAQVGDSMDRSIPPG
notes: as for B1
B45: Bid BH3 Q14A, phage-displayed (peptide)
peptide: QEDIIRNIARHLAAVGDSMDRSIPPG
notes: as for B1

Molecular target: T1, Bcl-w
Assay: competition phage ELISA

Binder | Fold/wt | IC50
B1 | 1 fold | 33 nM
B2 | 1 fold | 37 nM
B3 | 1 fold | 46 nM
B4 | 1 fold | 55 nM
B5 | 1 fold | 43 nM
B6 | 1 fold | 35 nM
B7 | 1 fold | 47 nM
B8 | 4 fold | 152 nM
B9 | 3 fold | 128 nM
B10 | 1 fold | 46 nM
B11 | 1 fold | 38 nM
B12 | 2 fold | 77 nM
B13 | 2 fold | 83 nM
B14 | 1 fold | 52 nM
B15 | 1 fold | 37 nM
B16 | 2 fold | 86 nM
B17 | 1 fold | 32 nM
B18 | 1 fold | 47 nM
B19 | 2 fold | 77 nM
B20 | 1 fold | 41 nM
B21 | 1 fold | 54 nM
B22 | 1 fold | 28 nM

molecular target: Bcl-2; assay: competition phage ELISA
Sequence (chain, as listed by the source): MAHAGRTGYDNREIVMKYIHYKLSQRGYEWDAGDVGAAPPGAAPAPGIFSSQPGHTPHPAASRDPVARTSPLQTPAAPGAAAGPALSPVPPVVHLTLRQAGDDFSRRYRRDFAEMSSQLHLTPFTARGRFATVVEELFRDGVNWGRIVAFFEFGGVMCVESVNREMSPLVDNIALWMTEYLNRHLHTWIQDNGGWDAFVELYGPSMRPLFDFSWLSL

Binder | Fold/wt | IC50
B1 | 1 fold | 12 nM
B2 | 1 fold | 15 nM
B3 | 1 fold | 10 nM
B4 | 2 fold | 29 nM
B5 | 3 fold | 43 nM
B6 | 1 fold | 7 nM
B7 | 1 fold | 18 nM
B8 | 2 fold | 26 nM
B10 | 1 fold | 13 nM
B11 | 1 fold | 13 nM
B12 | 1 fold | 19 nM
B14 | 1 fold | 19 nM
B15 | 1 fold | 13 nM
B16 | 5 fold | 57 nM
B17 | 1 fold | 14 nM
B18 | 1 fold | 10 nM
B19 | 1 fold | 19 nM
B20 | 1 fold | 14 nM
B21 | 1 fold | 14 nM
B22 | 1 fold | 17 nM

Molecular target: T1, Bcl-w
Assay: competition phage ELISA
Remark: another data set of the same source

Binder | Fold/wt | IC50
B23 | 25 fold | 553 nM
B24 | 1 fold | 25 nM
B25 | 2 fold | 52 nM
B26 | 1 fold | 26 nM
B27 | 1 fold | 23 nM
B28 | 8 fold | 182 nM
B29 | 1 fold | 29 nM
B30 | 11 fold | 253 nM
B31 | 1 fold | 27 nM
B32 | 1 fold | 25 nM
B33 | 3 fold | 59 nM
B34 | 2 fold | 34 nM
B35 | 1 fold | 23 nM
B36 | 1 fold | 25 nM
B37 | 1 fold | 17 nM
B38 | 1 fold | 31 nM
B39 | 1 fold | 24 nM
B40 | 1 fold | 34 nM
B41 | 2 fold | 34 nM
B42 | 2 fold | 42 nM
B43 | 1 fold | 18 nM
B44 | 2 fold | 46 nM
B45 | 1 fold | 25 nM
